# Measured values published in patent US11491212.
# Target: Factor X (FX), P00742
# Sequence (P00742 whole entry, looked up): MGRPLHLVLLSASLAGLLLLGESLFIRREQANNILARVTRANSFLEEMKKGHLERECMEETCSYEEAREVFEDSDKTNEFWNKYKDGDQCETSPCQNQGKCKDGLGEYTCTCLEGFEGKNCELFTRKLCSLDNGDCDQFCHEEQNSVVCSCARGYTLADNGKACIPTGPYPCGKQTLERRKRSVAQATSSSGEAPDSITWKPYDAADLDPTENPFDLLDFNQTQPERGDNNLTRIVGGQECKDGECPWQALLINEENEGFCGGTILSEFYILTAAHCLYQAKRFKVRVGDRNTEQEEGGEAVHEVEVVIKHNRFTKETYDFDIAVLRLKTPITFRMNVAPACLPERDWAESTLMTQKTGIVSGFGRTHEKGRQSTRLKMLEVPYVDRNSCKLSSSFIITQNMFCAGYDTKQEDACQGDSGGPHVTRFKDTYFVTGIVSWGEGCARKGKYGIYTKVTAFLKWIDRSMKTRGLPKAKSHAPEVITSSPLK
Protein,KM [µM],"KM (nM), FX activation by FIXa in the Xase complex (FVIIIa, PC/PS vesicles, Ca2+), indirect fluorogenic assay with Spectrafluor FXa [nM]",% of WT kcat/KM [%]
FIXa-K247N/N249S/R318Y/R403E/E410N (protein) chain 1: not shown chain 2: not shown,0.111,,
FIXa-K228N/247N/N249S/R318Y/R338E/T343R/E410N (protein) chain 1: not shown chain 2: not shown,,38.1,
FIXa-K228N/K247N/N249S/R318Y/R338E/T343R/R403E (protein) chain 1: not shown chain 2: not shown,,44.4,
FIXa-K293E/R338E/R403E (mature FIX numbering) (protein) chain 1: not shown chain 2: not shown,,,36
FIXa-R318Y/T343R/E410N (protein) chain 1: not shown chain 2: not shown,,52.3,
FIXa-Y155F/R318Y/T343R/E410N (protein) chain 1: not shown chain 2: not shown,,40.3,
FIXa-K293A/R338A/R403A (mature FIX numbering) (protein) chain 1: not shown chain 2: not shown,,,53
FIXa-R338E/R403E/E410N (mature FIX numbering) (protein) chain 1: not shown chain 2: not shown,,,411
FIXa-K228N/K247N/N249S/R318Y/T343R/R403E/E410N (protein) chain 1: not shown chain 2: not shown,,125,
FIXa-K228N/R318Y/R338E/T343R/R403E/E410N (protein) chain 1: not shown chain 2: not shown,,40.3,
